In publication PMC7367873, “Dissecting the sequence determinants for dephosphorylation by the catalytic subunits of phosphatases PP1 and PP2A” (Nature Communications, 2020):
One block for each molecule: values may come before it.

Assays:
[1] = tested on: GFP-14-3-3β and its binding proteins; assay: GFP-14-3-3β co-IP with LC-MS/MS label-free quantification, untreated versus PP1c-treated; parameters: species or system human; conditions: pairwise comparison PP1 vs untreated
[2] = tested on: GFP-14-3-3β; assay: GFP-14-3-3β co-IP with LC-MS/MS, untreated GFP-14-3-3β versus GFP control (14-3-3 interactome); format: binding, human; conditions: pairwise comparison untreated vs GFP
[3] = log2 difference, label-free quantification, 3 replicates each

B2: MRE11A (protein, UniProt P49959 2-708, looked up)
Double-strand break repair …: STADALDDENTFKILVATDIHLGFMEKDAVRGNDTFVTLDEILRLAQENEVDFILLGGDLFHENKPSRKTLHTCLELLRKYCMGDRPVQFEILSDQSVNFGFSKFPWVNYQDGNLNISIPVFSIHGNHDDPTGADALCALDILSCAGFVNHFGRSMSVEKIDISPVLLQKGSTKIALYGLGSIPDERLYRMFVNKKVTMLRPKEDENSWFNLFVIHQNRSKHGSTNFIPEQFLDDFIDLVIWGHEHECKIAPTKNEQQLFYISQPGSSVVTSLSPGEAVKKHVGLLRIKGRKMNMHKIPLHTVRQFFMEDIVLANHPDIFNPDNPKVTQAIQSFCLEKIEEMLENAERERLGNSHQPEKPLVRLRVDYSGGFEPFSVLRFSQKFVDRVANPKDIIHFFRHREQKEKTGEEINFGKLITKPSEGTTLRVEDLVKQYFQTAEKNVQLSLLTERGMGEAVQEFVDKEEKDAIEELVKYQLEKTQRFLKERHIDALEDKIDEEVRRFRETRQKNTNEEDDEVREAMTRARALRSQSEESASAFSADDLMSIDLAEQMANDSDDSISAATNKGRGRGRGRRGGRGQNSASRGGSQRGRADTGLETSTRSRNSKTAVSASRNMSIIDAFKSTRQQPSRNVTTKNYSEVIEVDESDVEEDIFPTTSKTDQRWSSTSSSKIMSQSQVSKGVDFESSEDDDDDPFMNTSSLRRNRR
Difference (log2), PP1 vs untreated [1]: 0.1784 log2
Difference (log2), untreated vs GFP [2]: -0.2958 log2

B3: KTN1 (protein, UniProt Q86UP2 1-1357, looked up)
Kinectin: MEFYESAYFIVLIPSIVITVIFLFFWLFMKETLYDEVLAKQKREQKLIPTKTDKKKAEKKKNKKKEIQNGNLHESDSESVPRDFKLSDALAVEDDQVAPVPLNVVETSSSVRERKKKEKKQKPVLEEQVIKESDASKIPGKKVEPVPVTKQPTPPSEAAASKKKPGQKKSKNGSDDQDKKVETLMVPSKRQEALPLHQETKQESGSGKKKASSKKQKTENVFVDEPLIHATTYIPLMDNADSSPVVDKREVIDLLKPDQVEGIQKSGTKKLKTETDKENAEVKFKDFLLSLKTMMFSEDEALCVVDLLKEKSGVIQDALKKSSKGELTTLIHQLQEKDKLLAAVKEDAAATKDRCKQLTQEMMTEKERSNVVITRMKDRIGTLEKEHNVFQNKIHVSYQETQQMQMKFQQVREQMEAEIAHLKQENGILRDAVSNTTNQLESKQSAELNKLRQDYARLVNELTEKTGKLQQEEVQKKNAEQAATQLKVQLQEAERRWEEVQSYIRKRTAEHEAAQQDLQSKFVAKENEVQSLHSKLTDTLVSKQQLEQRLMQLMESEQKRVNKEESLQMQVQDILEQNEALKAQIQQFHSQIAAQTSASVLAEELHKVIAEKDKQIKQTEDSLASERDRLTSKEEELKDIQNMNFLLKAEVQKLQALANEQAAAAHELEKMQQSVYVKDDKIRLLEEQLQHEISNKMEEFKILNDQNKALKSEVQKLQTLVSEQPNKDVVEQMEKCIQEKDEKLKTVEELLETGLIQVATKEEELNAIRTENSSLTKEVQDLKAKQNDQVSFASLVEELKKVIHEKDGKIKSVEELLEAELLKVANKEKTVQDLKQEIKALKEEIGNVQLEKAQQLSITSKVQELQNLLKGKEEQMNTMKAVLEEKEKDLANTGKWLQDLQEENESLKAHVQEVAQHNLKEASSASQFEELEIVLKEKENELKRLEAMLKERESDLSSKTQLLQDVQDENKLFKSQIEQLKQQNYQQASSFPPHEELLKVISEREKEISGLWNELDSLKDAVEHQRKKNNDLREKNWEAMEALASTEKMLQDKVNKTSKERQQQVEAVELEAKEVLKKLFPKVSVPSNLSYGEWLHGFEKKAKECMAGTSGSEEVKVLEHKLKEADEMHTLLQLECEKYKSVLAETEGILQKLQRSVEQEENKWKVKVDESHKTIKQMQSSFTSSEQELERLRSENKDIENLRREREHLEMELEKAEMERSTYVTEVRELKDLLTELQKKLDDSYSEAVRQNEELNLLKAQLNETLTKLRTEQNERQKVAGDLHKAQQSLELIQSKIVKAAGDTTVIENSDVSPETESSEKETMSVSLNQTVTQLQQLLQAVNQQLTKEKEHYQVLE
Difference (log2), PP1 vs untreated [1, 3]: 2.052
Difference (log2), untreated vs GFP [2, 3]: -1.401

Continued, in another order:

Difference (log2), PP1 vs untreated [1]: 0.1821 log2
B1: QARS (protein, UniProt P47897 2-775, looked up)
Glutamine--tRNA ligase: AALDSLSLFTSLGLSEQKARETLKNSALSAQLREAATQAQQTLGSTIDKATGILLYGLASRLRDTRRLSFLVSYIASKKIHTEPQLSAALEYVRSHPLDPIDTVDFERECGVGVIVTPEQIEEAVEAAINRHRPQLLVERYHFNMGLLMGEARAVLKWADGKMIKNEVDMQVLHLLGPKLEADLEKKFKVAKARLEETDRRTAKDVVENGETADQTLSLMEQLRGEALKFHKPGENYKTPGYVVTPHTMNLLKQHLEITGGQVRTRFPPEPNGILHIGHAKAINFNFGYAKANNGICFLRFDDTNPEKEEAKFFTAICDMVAWLGYTPYKVTYASDYFDQLYAWAVELIRRGLAYVCHQRGEELKGHNTLPSPWRDRPMEESLLLFEAMRKGKFSEGEATLRMKLVMEDGKMDPVAYRVKYTPHHRTGDKWCIYPTYDYTHCLCDSIEHITHSLCTKEFQARRSSYFWLCNALDVYCPVQWEYGRLNLHYAVVSKRKILQLVATGAVRDWDDPRLFTLTALRRRGFPPEAINNFCARVGVTVAQTTMEPHLLEACVRDVLNDTAPRAMAVLESLRVIITNFPAAKSLDIQVPNFPADETKGFHQVPFAPIVFIERTDFKEEPEPGFKRLAWGQPVGLRHTGYVIELQHVVKGPSGCVESLEVTCRRADAGEKPKAFIHWVSQPLMCEVRLYERLFQHKNPEDPTEVPGGFLSDLNLASLHVVDAALVDCSVALAKPFDKFQFERLGYFSVDPDSHQGKLVFNRTVTLKEDPGKV
Difference (log2), untreated vs GFP [2]: 0.6541 log2

Difference (log2), PP1 vs untreated [1]: 0.1978 log2
B4: RAI14 (protein, UniProt Q9P0K7 1-980, looked up)
Ankycorbin: MKSLKAKFRKSDTNEWNKNDDRLLQAVENGDAEKVASLLGKKGASATKHDSEGKTAFHLAAAKGHVECLRVMITHGVDVTAQDTTGHSALHLAAKNSHHECIRKLLQSKCPAESVDSSGKTALHYAAAQGCLQAVQILCEHKSPINLKDLDGNIPLLLAVQNGHSEICHFLLDHGADVNSRNKSGRTALMLACEIGSSNAVEALIKKGADLNLVDSLGYNALHYSKLSENAGIQSLLLSKISQDADLKTPTKPKQHDQVSKISSERSGTPKKRKAPPPPISPTQLSDVSSPRSITSTPLSGKESVFFAEPPFKAEISSIRENKDRLSDSTTGADSLLDISSEADQQDLLSLLQAKVASLTLHNKELQDKLQAKSPKEAEADLSFDSYHSTQTDLGPSLGKPGETSPPDSKSSPSVLIHSLGKSTTDNDVRIQQLQEILQDLQKRLESSEAERKQLQVELQSRRAELVCLNNTEISENSSDLSQKLKETQSKYEEAMKEVLSVQKQMKLGLVSPESMDNYSHFHELRVTEEEINVLKQDLQNALEESERNKEKVRELEEKLVEREKGTVIKPPVEEYEEMKSSYCSVIENMNKEKAFLFEKYQEAQEEIMKLKDTLKSQMTQEASDEAEDMKEAMNRMIDELNKQVSELSQLYKEAQAELEDYRKRKSLEDVTAEYIHKAEHEKLMQLTNVSRAKAEDALSEMKSQYSKVLNELTQLKQLVDAQKENSVSITEHLQVITTLRTAAKEMEEKISNLKEHLASKEVEVAKLEKQLLEEKAAMTDAMVPRSSYEKLQSSLESEVSVLASKLKESVKEKEKVHSEVVQIRSEVSQVKREKENIQTLLKSKEQEVNELLQKFQQAQEELAEMKRYAESSSKLEEDKDKKINEMSKEVTKLKEALNSLSQLSYSTSSSKRQSQQLEALQQQVKQLQNQLAECKKQHQEVISVYRMHLLYAVQGQMDEDVQKVLKQILTMCKNQSQKK
Difference (log2), untreated vs GFP [2]: 0.7048 log2

Difference (log2), PP1 vs untreated [1]: 0.177 log2
B5: XPO5 (protein, UniProt Q9HAV4 2-1204, looked up)
Exportin-5: AMDQVNALCEQLVKAVTVMMDPNSTQRYRLEALKFCEEFKEKCPICVPCGLRLAEKTQVAIVRHFGLQILEHVVKFRWNGMSRLEKVYLKNSVMELIANGTLNILEEENHIKDALSRIVVEMIKREWPQHWPDMLIELDTLSKQGETQTELVMFILLRLAEDVVTFQTLPPQRRRDIQQTLTQNMERIFSFLLNTLQENVNKYQQVKTDTSQESKAQANCRVGVAALNTLAGYIDWVSMSHITAENCKLLEILCLLLNEQELQLGAAECLLIAVSRKGKLEDRKPLMVLFGDVAMHYILSAAQTADGGGLVEKHYVFLKRLCQVLCALGNQLCALLGADSDVETPSNFGKYLESFLAFTTHPSQFLRSSTQMTWGALFRHEILSRDPLLLAIIPKYLRASMTNLVKMGFPSKTDSPSCEYSRFDFDSDEDFNAFFNSSRAQQGEVMRLACRLDPKTSFQMAGEWLKYQLSTFLDAGSVNSCSAVGTGEGSLCSVFSPSFVQWEAMTLFLESVITQMFRTLNREEIPVNDGIELLQMVLNFDTKDPLILSCVLTNVSALFPFVTYRPEFLPQVFSKLFSSVTFETVEESKAPRTRAVRNVRRHACSSIIKMCRDYPQLVLPNFDMLYNHVKQLLSNELLLTQMEKCALMEALVLISNQFKNYERQKVFLEELMAPVASIWLSQDMHRVLSDVDAFIAYVGTDQKSCDPGLEDPCGLNRARMSFCVYSILGVVKRTCWPTDLEEAKAGGFVVGYTSSGNPIFRNPCTEQILKLLDNLLALIRTHNTLYAPEMLAKMAEPFTKALDMLDAEKSAILGLPQPLLELNDSPVFKTVLERMQRFFSTLYENCFHILGKAGPSMQQDFYTVEDLATQLLSSAFVNLNNIPDYRLRPMLRVFVKPLVLFCPPEHYEALVSPILGPLFTYLHMRLSQKWQVINQRSLLCGEDEAADENPESQEMLEEQLVRMLTREVMDLITVCCVSKKGADHSSAPPADGDDEEMMATEVTPSAMAELTDLGKCLMKHEDVCTALLITAFNSLAWKDTLSCQRTTSQLCWPLLKQVLSGTLLADAVTWLFTSVLKGLQMHGQHDGCMASLVHLAFQIYEALRPRYLEIRAVMEQIPEIQKDSLDQFDCKLLNPSLQKVADKRRKDQFKRLIAGCIGKPLGEQFRKEVHIKNLPSLFKKTKPMLETEVLDNDGGGLATIFEP
Difference (log2), untreated vs GFP [2]: 1.1372 log2
